Where no end group is shown, it is not given here.
Biological target: BSA (UniProt P02769 25-607)
Assay: photocrosslinking with TAMRA-tagged adapter, reducing SDS-PAGE, fluorescence image

B1: LASIC Protein G adapter with C-terminal STEPL peptide (TAMRA; TAMRA-DBCO; FAM-Azide; Biotin), BPA position not stated (designed binder)
chain: MTFKLIINGKTLKGEITIEAVDAAEAEKIFKQYANDYGIDGEWTYDDATKTFTVTE
modifications: also: BPA at unstated position, C-terminal Gly-Gly-Gly peptide carrying label (TAMRA, TAMRA-DBCO, FAM-azide or biotin)
notes: also called TAMRA dye-tagged LASIC adapter; TAMRA labeled Protein G adapter protein
  binding result: no binding
